Laboratory results published in publication PMC6073527, “Functional Characterization and Structure-Guided Mutational Analysis of the Transsulfuration Enzyme Cystathionine γ-Lyase from Toxoplasma gondii” (International Journal of Molecular Sciences, 2018).

What was measured:
[1] = biological target: T1, Cystathionine γ-lyase (TgCGL) (Toxoplasma gondii, UniProt A0A125YN40); assay: UV-visible absorption titration at […] and […] nm; also substrate inhibition (Ki […]); assay type: binding
T1 construct: gene TGME49_312930; full-length, N-terminal His6 tag
T1 sequence (A0A125YN40 1-417): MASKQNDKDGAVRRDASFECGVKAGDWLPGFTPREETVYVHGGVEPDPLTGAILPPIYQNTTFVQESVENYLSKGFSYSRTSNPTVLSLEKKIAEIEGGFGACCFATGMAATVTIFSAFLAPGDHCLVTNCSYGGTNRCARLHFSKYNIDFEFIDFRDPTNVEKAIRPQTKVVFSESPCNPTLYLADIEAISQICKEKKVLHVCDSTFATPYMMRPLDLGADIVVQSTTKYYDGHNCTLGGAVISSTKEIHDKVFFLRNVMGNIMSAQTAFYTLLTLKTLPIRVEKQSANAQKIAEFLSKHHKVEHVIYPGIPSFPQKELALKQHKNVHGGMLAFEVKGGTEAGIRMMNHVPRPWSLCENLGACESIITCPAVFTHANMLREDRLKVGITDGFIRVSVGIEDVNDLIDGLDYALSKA

[2] = biological target: T2, Cystathionine γ-lyase (TgCGL) (Toxoplasma gondii, UniProt A0A125YN40, N360S); assay: as above; assay type: binding
T2 construct: gene TGME49_312930; full-length, N-terminal His6 tag

[3] = biological target: T3, Cystathionine γ-lyase (TgCGL) (Toxoplasma gondii, UniProt A0A125YN40, S77E); assay: UV-visible absorption titration at […] and […] nm (no hydrolysis detected); assay type: binding
T3 construct: gene TGME49_312930; full-length, N-terminal His6 tag
T3 sequence (A0A125YN40 1-417 S77E): T1 sequence (A0A125YN40 1-417)

[4] = test system: N[C@@H](CCSC[C@H](N)C(=O)O)C(=O)O; assay: steady-state kinetics of the purified enzyme, DTNB assay (Km); assay type: biochemical, Toxoplasma gondii; conditions: PLP; pH 9.0; 37.0 °C
[5] = biological target: cystathionine γ-lyase from Toxoplasma gondii (Toxoplasma gondii); assay: SEC; analytical gel filtration on Superdex 200 HR 10/300 GL; 50 mM sodium phosphate buffer pH 8.5, 150 mM NaCl, 0.1 mM DTT; mass from a calibration curve
[6] = biological target: T4, Cystathionine γ-lyase (TgCGL) (Toxoplasma gondii, UniProt A0A125YN40); assay: intrinsic fluorescence titration of apo-TgCGL (excitation […] nm, emission […] nm); assay type: binding
T4 construct: gene TGME49_312930; full-length, N-terminal His6 tag (apo-protein)

[7] = test system: N[C@@H](CSCSC[C@H](N)C(=O)O)C(=O)O; assay: steady-state kinetics of the purified enzyme, LDH-coupled assay (Km); assay type: biochemical, Toxoplasma gondii; conditions: PLP; pH 9.0; 37.0 °C
[8] = test system: N[C@@H](CCSC[C@H](N)C(=O)O)C(=O)O; assay: purified protein; assay type: biochemical, Toxoplasma gondii; conditions: PLP active site; external aldimine with PLP (modelled); pH 9.0; 37.0 °C
[9] = substrate: N[C@@H](CCSC[C@H](N)C(=O)O)C(=O)O; assay: purified protein; conditions: PLP active site; external aldimine with PLP (modelled); pH 9.0; 37.0 °C
[10] = substrate: N[C@@H](CSCSC[C@H](N)C(=O)O)C(=O)O; assay: steady-state kinetics of the purified enzyme, LDH-coupled assay (Km); assay type: biochemical, Toxoplasma gondii; conditions: PLP; pH 9.0; 37.0 °C; remark: listed apart in the source
[11] = substrate: NCCSC[C@H](N)C(=O)O; assay: steady-state kinetics of the purified enzyme, α,β-elimination (Km); assay type: biochemical, Toxoplasma gondii; conditions: PLP

## N[C@@H](CS)C(=O)O [L-cysteine]
[1]
  Kd: 306 ± 41 (335 nm); 273 ± 52 (421 nm) µM
[2]
  Kd: 335 ± 15 (335 nm); 331 ± 20 (421 nm) µM
[3]
  Kd: 677 ± 180 (335 nm); 874 ± 87 (421 nm) µM

## Cystathionine γ-lyase (TgCGL) (Toxoplasma gondii ME49; S77A)
[4]
  Km: 2400 ± 300 µM
  kcat: 0.7 ± 0.1 s⁻¹
  kcat/Km: 290 ± 80 M⁻¹ s⁻¹

## cystathionine γ-lyase from Toxoplasma gondii (enzyme)
[5]
  stoichiometry N: 4

## Cc1ncc(COP(=O)(O)O)c(C=O)c1O [PLP]
[6]
  Kd: 170 ± 40 nM

## Cystathionine γ-lyase (TgCGL) (Toxoplasma gondii ME49; N360S)
[7]
  Km: 860 ± 30 µM
  kcat: 0.19 ± 0.01 s⁻¹
  kcat/Km: 220 ± 20 M⁻¹ s⁻¹
[8]
  Km: 1100 ± 100 µM
  kcat: 0.08 ± 0.01 s⁻¹
  kcat/Km: 73 ± 16 M⁻¹ s⁻¹

B1: Cystathionine γ-lyase (TgCGL) (Toxoplasma gondii ME49) (protein)
chain: T1 sequence (A0A125YN40 1-417)
notes: full-length, N-terminal His6 tag
[9]
  Km: 900 ± 100 µM
[10]
  Km: 510 ± 10 µM
  kcat: 0.24 ± 0.01 s⁻¹
  kcat/Km: 470 ± 30 M⁻¹ s⁻¹
[11]
  Km: 1300 ± 100 µM
